In patent publication US20250382354A1 one finds EC50 data, which are given here for ten molecules.

Numbering of substitutions follows the chain as printed.

Targets include MHV HR2 peptide (MHV); SADS HR2 peptide (SADS); 229E FP peptide (229E); HKU1 FP peptide (HKU1).
Common to all, as to assay: peptide ELISA
(In general: In an ELISA, binding on a coated surface is turned into a signal by an enzyme label.)

In experiment [1] the target is HKU5 HR2 peptide (HKU5), A3EXD0.
The target of experiment [2] is HKU9 HR2 peptide (HKU9), A3EXG6.
Experiment [3] concerns the target SARS-CoV-2 HR2 peptide (SARS-CoV-2), P0DTC2.
In experiment [4] the target is HKU4 HR2 peptide (HKU4), A3EX94.
For experiment [5], the target named is Hu_PDCoV FP peptide (Hu_PDCoV).
For experiment [6], the target named is MERS FP peptide (MERS), K9N5Q8.
In experiment [7] the target is NL63 FP peptide (NL63), Q6Q1S2.
The target in experiment [8] is OC43 FP peptide (OC43), P36334.
Experiment [9] concerns the target SARS-CoV FP peptide (SARS-CoV), P59594.
Experiment [10] concerns the target SARS-CoV-2 FP peptide (SARS-CoV-2).
Experiment [11] concerns the target CCoV_HuPn FP peptide (CCoV_HuPn).
Experiment [12] concerns the target FCoV-KU2 FP peptide (FCoV-KU2).

B1: CV3-25 (antibody)
chain 1: QVQLVESGAEVKKPGESLKISCKGSGYTFTRYWIGWVRQMPGKGLEWMGIIYPGDSDTRYSPSFQGHVTISADKSISTAYLQWNSLKASDTAMYYCARLPQYCSNGVCQRWFDPWGQGTLVTVSS
chain 2: EIVLTQSPSSVSASVGDRVTITCRASQGISSWLAWYQQKPGKAPKLLIYAASSLQSGVPSRFSGSGSGTDFTLTISSLQPEDFATYYCQQGNSFPYTFGQGTNLEIK
In general, EC50 refers to the concentration giving half of the maximal effect. High values mean a need for much substance, low ones an effect from little substance. Consider B1, for which the concentration for a half-maximal effect (EC50) in experiment [1] came to 1.57 µg/mL; in [2], 0.358 µg/mL; with MHV HR2 peptide (MHV), 0.0239 µg/mL; in experiment [3], 0.00968 µg/mL.

B2: hr2.013 (antibody, V domains shown)
VH: QVQLVQSGAEVKKPGASVKISCKASGYTFTNNYMNWVRQAPGQGLEWMGIIKPSSGSTIYAHKFQGRVTMTRDTSTSTVYMEVRSLTSEDTAVYYCARDQDHGLQNWGQGTLVTVSS
VL: QSVLTQPPSVSAASGQKVTIYCSGSSSNIASNFVSWYQQFPGTAPKLLIYDNNQRPSGIPDRFSGSRSGTSATLGITGLQTGDEADYYCGTWDTSLGAWVFGGGTKLTVL
Turning to B2, the EC50 was found to be 0.0181 µg/mL in experiment [4]; 0.0292 µg/mL in [1]; 0.043 µg/mL with MHV HR2 peptide (MHV); 0.042 µg/mL in the experiment with SADS HR2 peptide (SADS); 0.0317 µg/mL in [3].

B3: hr2.015 (antibody, V domains shown)
VH: QVQLVQSGAEVKKPGASVKVSCKASGYTFSSYYVNWVRQAPGQGLEWLGIINRSGSSTIYAQKFQGRVTMTRDTSTSTVYLELSSLRSEDTAVYYCARDQDHALHWGQGTLVTVSS
VL: B2 VL with S14P, Y21S, A30G, F33Y, F40L, N53S, Q54E, G97S
In the case of B3, the EC50 in experiment [4] came out at 0.05 µg/mL; in experiment [1] it was 0.0467 µg/mL; with MHV HR2 peptide (MHV), 0.0543 µg/mL; with SADS HR2 peptide (SADS), 0.0731 µg/mL; in experiment [3] it was 0.047 µg/mL.

B4: hr2.094 (antibody, V domains shown)
VH: EVQLVESGGGLVQPGGSLRLSCAASGFTFSTFWMTWVRQAPGKGLEWVANIKSDGSEKYYVDSVKGRFTISRDNAKNSLYLQMNSLRAEDTAVYYCATWFGLHWGQGTLVTVSS
VL: DIVMTQSPDSLAVSLGERASINCKSSQTVLYSSNNKNYLAWYQQKPGQPPKLLIHWASTRDSGVPDRFSGSGSGTDFTLTISSLQAEDVAVYYCQQYHRIPWTFGRGTKVEIK
With B4, the EC50 was found to be 0.0157 µg/mL in experiment [4]; 0.0192 µg/mL in experiment [1]; 0.227 µg/mL in [2]; 0.0189 µg/mL with MHV HR2 peptide (MHV); 0.0835 µg/mL in [3].

B5: fp.004 (antibody, V domains shown)
VH: VQLVESGGGVVQPGTSLRLSCVASGFTFSNYAMHWVRQAPGKGLEWVAIISFDTRNTASAASVKGRFNISRDNSKNSLYLQMNSLRPEDTGVYYCARDLFLSDYDSRGYDPITGGFDCWGQGTLVTVSS
VL: EIVMTQSPAALSVSPGEGATLSCRASQSVGSRLAWYQQKLGRPPRLLIYGASTRATGIPARFSGSGSGTEFTLTISSLQSEDFAVYYCQQYNDWPLLTFGGGTKVKIK
As to B5, the EC50 with 229E FP peptide (229E) was found to be 0.0202 µg/mL; with HKU1 FP peptide (HKU1), 0.0272 µg/mL; in experiment [5], 0.0343 µg/mL; in experiment [6] it was 0.0386 µg/mL; in experiment [7] it was 0.0267 µg/mL; in [8] it was 0.0222 µg/mL. The EC50 in [9] worked out at 0.03 µg/mL; in experiment [10], 0.0352 µg/mL.

B6: fp.002 (antibody, V domains shown)
VH: VQLVESGGGVVQPGTSLRLSCAGSGFNFDNYAIHWVRQAPGQGLEWVAIISYEARNKKYAGSVTGRFSISRDNSKSMVYLQMDSLRGEDTAVYYCARDLFLSDYDRSGYDPTRGGFDLWGQGTLVTVSS
VL: EIVMTQSPATLSVSPGERATLSCRASQSVSSSLAWYQHKLGQAPRLLIYGASTRATGIPGRFSGSGSGTEFTLTISSLQSEDVAIYYCQQYGDWPLVTFGGGTKVEIK
Take B6: the EC50 came to 0.0176 µg/mL in the experiment with 229E FP peptide (229E); 0.0256 µg/mL with HKU1 FP peptide (HKU1); 0.0215 µg/mL in [5]; 0.0358 µg/mL in experiment [6]; 0.0245 µg/mL in experiment [7]; 0.0211 µg/mL in experiment [8]. In addition, the values for the EC50 in experiment [9] and in [10] were 0.0285 µg/mL and 0.032 µg/mL, respectively.

B7: fp.009 (antibody, V domains shown)
VH: VQLVESGGGVVQPGTSLTLSCEASGFTFSNYAMHWVRQAPGKGLEWVAIISFDTRNKKFAGSVQGRFSISRDNAKNSIYLQMNNLRPEDTGIYYCARDVFLSDYDSRGFDRTRGGFDYWGQGTLVTVSS
VL: B6 VL with R18K, Q27E, S30G, H38Q, G60A, T69A, V83F, V97L
For B7, the EC50 is 0.0236 µg/mL with 229E FP peptide (229E); 0.021 µg/mL in experiment [11]; 0.0241 µg/mL with HKU1 FP peptide (HKU1); 0.0276 µg/mL in experiment [5]; 0.0346 µg/mL in experiment [6]; 0.0214 µg/mL in [7]. Moreover, the results for the EC50 in [8], in experiment [9] and in experiment [10] were 0.026 µg/mL, 0.0251 µg/mL and 0.038 µg/mL, respectively.

B8: fp.006 (antibody, V domains shown)
VH: VQLVESGGGVVQPGGSLRLSCAASGFNFNNYALHWVRQAPGKGLEWVAIISYEARNKKYGVSVMGRFSISRDNSKSIMYLEMNSLRVEDTGVYYCARDLFLSDYDRSGYDPTRGGFDHWGQGTLVTVSS
VL: B6 VL with K39R, L40F, Y49S, I85V
In the case of B8, the EC50 turned out to be 0.0121 µg/mL with 229E FP peptide (229E); 0.0149 µg/mL in [12]; 0.0168 µg/mL in the experiment with HKU1 FP peptide (HKU1); 0.0228 µg/mL in [6]; 0.0144 µg/mL in experiment [7]; 0.0134 µg/mL in experiment [8]. Besides, the EC50 in experiment [9] worked out at 0.0157 µg/mL; in experiment [10], 0.0331 µg/mL.

B9: fp.005 (antibody, V domains shown)
VH: VQLVESGGGVVQPGNSLRLSCAASGFRFNNYAMHWVRQAPGKGLEWVAIISYEARNEKYADSVKGRFSISRDNAKNTLYLQMNSLRADDTGVYYCARDLFLSDYDTSGYDRTRGGFDYWGQGALVTVSS
VL: B6 VL with S31N, S32G, K39R, L40F, A43P, G60T, V83F, I85V, G92D, V97I
B9: the EC50 in the experiment with 229E FP peptide (229E) is 0.0175 µg/mL; in [12], 0.028 µg/mL; in experiment [6], 0.04 µg/mL; in [7], 0.0231 µg/mL; in [8], 0.0244 µg/mL; in experiment [10], 0.0295 µg/mL.

B10: fp.003 (antibody, V domains shown)
VH: VQLVESGGGVVQPGTSLRLSCTASGFSFSNYAMHWVRQAPGKGLEWVAIISFDTRNKEFADSVKGRFSISRDNSKNSLNLQMNSLRPEDTGVYYCARDLFLSDYDSRGYEPSRGGFDYWGQGTLVTVSS
VL: B5 VL with A10T, G18R, G30S, R32S, R42Q, Q79K, F83S, T98S, K106E
For B10, the EC50 with 229E FP peptide (229E) was determined as 0.0201 µg/mL; in [12], 0.0295 µg/mL; in the experiment with HKU1 FP peptide (HKU1) it was 0.0238 µg/mL; in experiment [6] it was 0.0349 µg/mL; in experiment [7], 0.0249 µg/mL; in [8], 0.0149 µg/mL. Moreover, the EC50 in experiment [9] came to 0.0285 µg/mL; in experiment [10] it was 0.0369 µg/mL.
